# Measurements as given in the supplement of paper PMC9112550, “Optimization of the antimicrobial peptide Bac7 by deep mutational scanning” (BMC Biology, 2022).
# Test system: Escherichia coli TOP10
# Experiment: shrunken log2 fold change of peptide-encoding DNA abundance (4.5 h post-induction vs induction); higher = less antimicrobial activity (less host growth inhibition)
# Conditions: time post-induction: 4.5 h; library: site-saturation at positions 5, 18, 19, 20
# 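Also: peptides expressed intracellularly from a pBAD plasmid library in pooled LB shake-flask culture, induced with 0.3% L-arabinose, DNA abundance read by NGS, three biological replicates, DESeq2 with apeglm shrinkage.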
row,Sequence,shrunken log2 fold change
1,RRIRSRPPRLPRPRPRPWPRPRP,0.646
2,RRIRLRPPRLPRPRPRPAFSPRP,0.106
3,RRIRGRPPRLPRPRPRPNDWPRP,0.235
4,RRIRMRPPRLPRPRPRPHTVPRP,-0.0708
5,RRIRIRPPRLPRPRPRPVDAPRP,-0.0281
6,RRIRPRPPRLPRPRPRPHNVPRP,-0.104
7,RRIRNRPPRLPRPRPRPDWHPRP,-0.394
8,RRIRYRPPRLPRPRPRPCFQPRP,-0.267
9,RRIRRRPPRLPRPRPRPLVTPRP,-0.0631
10,RRIRGRPPRLPRPRPRPWHRPRP,0.0496
11,RRIRGRPPRLPRPRPRPCALPRP,0.594
12,RRIRWRPPRLPRPRPRPSPNPRP,0.106
13,RRIRTRPPRLPRPRPRPIMLPRP,-0.32
14,RRIRNRPPRLPRPRPRPRPLPRP,0.402
15,RRIRERPPRLPRPRPRPPREPRP,0.87
16,RRIRHRPPRLPRPRPRPLTNPRP,0.185
17,RRIRVRPPRLPRPRPRPSLYPRP,-0.62
18,RRIRVRPPRLPRPRPRPHKRPRP,0.06
19,RRIRIRPPRLPRPRPRPQWIPRP,3.04
20,RRIRYRPPRLPRPRPRPACMPRP,-0.0495
21,RRIRKRPPRLPRPRPRPPVAPRP,0.974
22,RRIRYRPPRLPRPRPRPYVVPRP,-0.24
23,RRIRFRPPRLPRPRPRPLRWPRP,0.59
24,RRIRGRPPRLPRPRPRPGLFPRP,1.01
25,RRIRHRPPRLPRPRPRPEAGPRP,0.264

row,Sequence,shrunken log2 fold change
1,RRIRRRPPRLPRPRPRPQMMPRP,-0.232
2,RRIRNRPPRLPRPRPRPMSQPRP,-0.0161
3,RRIRRRPPRLPRPRPRPQTKPRP,0.161
4,RRIRERPPRLPRPRPRPEMEPRP,-0.0231
5,RRIRKRPPRLPRPRPRPRRHPRP,0.523
6,RRIRVRPPRLPRPRPRPDGMPRP,-0.454
7,RRIRPRPPRLPRPRPRPQWLPRP,-0.0256
8,RRIRKRPPRLPRPRPRPWNDPRP,0.0299
9,RRIRTRPPRLPRPRPRPMGNPRP,-0.0115
10,RRIRCRPPRLPRPRPRPQDSPRP,-0.0482
11,RRIRSRPPRLPRPRPRPEDAPRP,0.821
12,RRIRERPPRLPRPRPRPRPHPRP,0.791
13,RRIRERPPRLPRPRPRPWRWPRP,0.0174
14,RRIRMRPPRLPRPRPRPYYPPRP,-0.159
15,RRIRHRPPRLPRPRPRPHHLPRP,-0.0119
16,RRIRARPPRLPRPRPRPTMLPRP,0.15
17,RRIRKRPPRLPRPRPRPCIAPRP,-0.0581
18,RRIRYRPPRLPRPRPRPGGSPRP,-0.017
19,RRIRTRPPRLPRPRPRPDRNPRP,-0.09
20,RRIRRRPPRLPRPRPRPNNAPRP,-0.18
21,RRIRVRPPRLPRPRPRPNKVPRP,-0.271
22,RRIRGRPPRLPRPRPRPLLFPRP,0.873
23,RRIRCRPPRLPRPRPRPRAFPRP,-0.0361
24,RRIRYRPPRLPRPRPRPTQNPRP,0.298
25,RRIRYRPPRLPRPRPRPHILPRP,-0.288

row,Sequence,shrunken log2 fold change
1,RRIRDRPPRLPRPRPRPFYLPRP,-0.085
2,RRIRQRPPRLPRPRPRPRMFPRP,0.0604
3,RRIRNRPPRLPRPRPRPCQCPRP,-0.00992
4,RRIRCRPPRLPRPRPRPSHSPRP,-0.392
5,RRIRARPPRLPRPRPRPEHVPRP,0.269
6,RRIRLRPPRLPRPRPRPDAPPRP,0.313
7,RRIRMRPPRLPRPRPRPLYPPRP,-0.151
8,RRIRARPPRLPRPRPRPWGEPRP,-0.00466
9,RRIRVRPPRLPRPRPRPNPIPRP,0.129
10,RRIRHRPPRLPRPRPRPCCVPRP,-0.193
11,RRIRMRPPRLPRPRPRPEDPPRP,1.02
12,RRIRSRPPRLPRPRPRPDEIPRP,0.139
13,RRIRQRPPRLPRPRPRPHANPRP,-0.671
14,RRIRDRPPRLPRPRPRPCCDPRP,0.655
15,RRIRYRPPRLPRPRPRPTESPRP,0.0538
16,RRIRFRPPRLPRPRPRPNDKPRP,-0.32
17,RRIRKRPPRLPRPRPRPPTMPRP,0.412
18,RRIRPRPPRLPRPRPRPLEYPRP,-0.56
19,RRIRWRPPRLPRPRPRPKECPRP,0.236
20,RRIRHRPPRLPRPRPRPKYTPRP,0.973
21,RRIRLRPPRLPRPRPRPHLLPRP,-0.0156
22,RRIRIRPPRLPRPRPRPIAEPRP,-0.22
23,RRIRLRPPRLPRPRPRPKNRPRP,0.177
24,RRIRPRPPRLPRPRPRPNTPPRP,-0.153
25,RRIRNRPPRLPRPRPRPYPFPRP,0.0247

row,Sequence,shrunken log2 fold change
1,RRIRMRPPRLPRPRPRPLRVPRP,1.14
2,RRIRVRPPRLPRPRPRPRPAPRP,0.678
3,RRIRTRPPRLPRPRPRPAQHPRP,0.0266
4,RRIRLRPPRLPRPRPRPGSYPRP,0.186
5,RRIRYRPPRLPRPRPRPYWSPRP,-0.0274
6,RRIRLRPPRLPRPRPRPLIVPRP,-0.131
7,RRIRYRPPRLPRPRPRPLQLPRP,-1.13
8,RRIRIRPPRLPRPRPRPVEIPRP,-0.0212
9,RRIRGRPPRLPRPRPRPGCRPRP,1.16
10,RRIRTRPPRLPRPRPRPVVGPRP,0.626
11,RRIRNRPPRLPRPRPRPKLRPRP,0.00281
12,RRIRPRPPRLPRPRPRPASRPRP,0.0846
13,RRIRSRPPRLPRPRPRPTLQPRP,0.128
14,RRIRIRPPRLPRPRPRPDYRPRP,0.0581
15,RRIRFRPPRLPRPRPRPEPLPRP,0.0513
16,RRIRQRPPRLPRPRPRPADKPRP,-0.137
17,RRIRHRPPRLPRPRPRPAESPRP,-0.218
18,RRIRHRPPRLPRPRPRPQTLPRP,-0.313
19,RRIRDRPPRLPRPRPRPYWCPRP,0.0158
20,RRIRERPPRLPRPRPRPKGKPRP,-0.0014
21,RRIRQRPPRLPRPRPRPHGIPRP,0.179
22,RRIRFRPPRLPRPRPRPVESPRP,-0.0712
23,RRIRDRPPRLPRPRPRPMHIPRP,-0.11
24,RRIRFRPPRLPRPRPRPGYVPRP,-0.116
25,RRIRLRPPRLPRPRPRPERVPRP,0.0357

row,Sequence,shrunken log2 fold change
1,RRIRQRPPRLPRPRPRPKTWPRP,1.14
2,RRIRRRPPRLPRPRPRPAVKPRP,0.0474
3,RRIRTRPPRLPRPRPRPIPVPRP,-0.412
4,RRIRDRPPRLPRPRPRPIHIPRP,-0.734
5,RRIRDRPPRLPRPRPRPHPMPRP,0.0468
6,RRIRIRPPRLPRPRPRPHIRPRP,-0.297
7,RRIRCRPPRLPRPRPRPVAAPRP,0.689
8,RRIRVRPPRLPRPRPRPASKPRP,-0.0732
9,RRIRHRPPRLPRPRPRPTAAPRP,0.518
10,RRIRQRPPRLPRPRPRPLEVPRP,-0.0417
11,RRIRGRPPRLPRPRPRPQIQPRP,0.0796
12,RRIRKRPPRLPRPRPRPNGIPRP,-0.029
13,RRIRSRPPRLPRPRPRPWRDPRP,0.0985
14,RRIRMRPPRLPRPRPRPQPGPRP,0.778
15,RRIRGRPPRLPRPRPRPVPQPRP,0.618
16,RRIRSRPPRLPRPRPRPITLPRP,-0.333
17,RRIRERPPRLPRPRPRPVRAPRP,0.287
18,RRIRARPPRLPRPRPRPDILPRP,0.0584
19,RRIRGRPPRLPRPRPRPWGCPRP,0.702
20,RRIRDRPPRLPRPRPRPIWPPRP,0.0998
21,RRIRRRPPRLPRPRPRPQMWPRP,-0.00576
22,RRIRQRPPRLPRPRPRPWAAPRP,0.0922
23,RRIRSRPPRLPRPRPRPWRLPRP,0.0899
24,RRIRTRPPRLPRPRPRPWNDPRP,-0.271
25,RRIRIRPPRLPRPRPRPLDVPRP,-0.0639

row,Sequence,shrunken log2 fold change
1,RRIRIRPPRLPRPRPRPISLPRP,-0.129
2,RRIRCRPPRLPRPRPRPDNSPRP,-0.53
3,RRIRWRPPRLPRPRPRPHEQPRP,0.718
4,RRIRIRPPRLPRPRPRPGCQPRP,-0.0196
5,RRIRTRPPRLPRPRPRPILPPRP,-0.066
6,RRIRRRPPRLPRPRPRPNCDPRP,0.186
7,RRIRVRPPRLPRPRPRPDKMPRP,-0.0822
8,RRIRHRPPRLPRPRPRPHRTPRP,-0.179
9,RRIRGRPPRLPRPRPRPSWTPRP,0.219
10,RRIRRRPPRLPRPRPRPIGDPRP,0.257
11,RRIRDRPPRLPRPRPRPRSEPRP,-0.0682
12,RRIRARPPRLPRPRPRPMWDPRP,-0.103
13,RRIRYRPPRLPRPRPRPSWWPRP,-0.511
14,RRIRHRPPRLPRPRPRPAYGPRP,-0.075
15,RRIRYRPPRLPRPRPRPPCKPRP,0.0994
16,RRIRVRPPRLPRPRPRPKHAPRP,0.133
17,RRIRWRPPRLPRPRPRPALTPRP,0.393
18,RRIRFRPPRLPRPRPRPPWWPRP,0.651
19,RRIRLRPPRLPRPRPRPVRLPRP,0.576
20,RRIRARPPRLPRPRPRPCHHPRP,-0.0114
21,RRIRHRPPRLPRPRPRPWTSPRP,-0.00277
22,RRIRLRPPRLPRPRPRPKWSPRP,-0.171
23,RRIRMRPPRLPRPRPRPWKVPRP,-0.0135
24,RRIRERPPRLPRPRPRPEGLPRP,-0.00749
25,RRIRHRPPRLPRPRPRPVMVPRP,-2.78e-05
